T1: FcγRIIb (human, UniProt P31994 43-217)
T1 construct: extracellular domain; Soluble extracellular domain with C-terminal His tag, used as analyte in Biacore; also called FcgRIIb; 2b; not shown: His tag attached to the C terminus
T1 sequence (looked up): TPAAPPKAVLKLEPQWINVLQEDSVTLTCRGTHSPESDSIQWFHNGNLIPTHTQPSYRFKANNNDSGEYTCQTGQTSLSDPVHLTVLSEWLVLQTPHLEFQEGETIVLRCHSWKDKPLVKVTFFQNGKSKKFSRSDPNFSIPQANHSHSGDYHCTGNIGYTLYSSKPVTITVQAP

T2: FcγRIIa R (human, UniProt P12318 34-217)
T2 construct: extracellular domain; Soluble extracellular domain with C-terminal His tag, expressed in FreeStyle293 cells; also called FcgRIIa R; FcγRIIa type R; not shown: His tag attached to the C terminus
T2 sequence (looked up): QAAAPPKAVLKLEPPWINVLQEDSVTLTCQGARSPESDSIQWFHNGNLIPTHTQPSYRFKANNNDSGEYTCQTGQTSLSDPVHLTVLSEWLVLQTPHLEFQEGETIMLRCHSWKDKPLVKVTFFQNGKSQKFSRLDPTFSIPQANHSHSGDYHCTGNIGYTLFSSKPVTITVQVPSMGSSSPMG


Key:
[1] = molecular target: T3, FcγRIa (human, UniProt P12314 16-292); assay: SPR (Biacore); He/Con_1a divided by He/Con_2b (FcγRIa against FcγRIIb)
T3 construct: extracellular domain; Soluble extracellular domain with C-terminal His tag, used as analyte in Biacore; also called FcgRI; 1a; not shown: His tag attached to the C terminus

[2] = molecular target: T3, FcγRIa; assay: SPR (Biacore), antibody captured on antigen peptide, FcγR as analyte; relative to GpH7-A5/GpH7-B3/GpL16-k0 = 100
[3] = molecular target: T1, FcγRIIb; assay: as above
[4] = molecular target: T2, FcγRIIa R; assay: SPR (Biacore), antibody captured via antigen peptide, FcγRIIa R as analyte; heterodimerized antibody
Procedure: Analysis of interaction between objective antibody and the FcγR was carried out using Biacore T100 (GE Healthcare). HBS-EP+ (GE Healthcare) was used as the running buffer, and the measurement temperature was set to 25° C. Chips produced by immobilizing the antigen peptide by the amine coupling method to a Series S Sencor Chip CM5 (GE Healthcare), or alternatively, chips produced by allowing preliminarily biotinylated antigen peptides to interact with and immobilize onto a Series S Sensor Chip SA (certified) (GE Healthcare) were used. Antibodies of interest were captured onto an antigen peptide-immobilized chip, and allowed to interact to each FcγR diluted with running buffer. To regenerate and repeatedly use the chip, the antibodies captured on the chip were washed off by reacting 10 mM glycine-HCl, pH 1.5.

T3 sequence (P12314 16-292): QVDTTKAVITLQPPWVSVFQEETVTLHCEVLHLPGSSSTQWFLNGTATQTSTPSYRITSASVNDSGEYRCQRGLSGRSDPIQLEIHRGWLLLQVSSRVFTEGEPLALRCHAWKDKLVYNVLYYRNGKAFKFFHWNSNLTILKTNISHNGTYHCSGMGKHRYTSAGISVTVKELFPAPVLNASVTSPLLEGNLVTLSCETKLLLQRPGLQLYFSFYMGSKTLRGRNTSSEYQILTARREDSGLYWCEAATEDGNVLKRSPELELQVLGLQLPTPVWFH

Binder	Ia/IIb He_1a/2b [1] [ratio]	He/Con_1a [2]	He/Con_2b [3]	He/Con_2aR [4]
GpH7-A5/GpH7-B3 variant G237_02A/GpL16-k0 (antibody, human IgG1, kappa, Heterodimerized IgG1; mutation in the GpH7-B3 H chain only; also called He Ab) heavy 1: not shown heavy 2: not shown light: DIVMTQSPLSLPVTPGEPASISCQASESLVHSNRNTYLHWYLQKPGQSPQLLIYKVSNRFSGVPDRFSGSGSGTDFTLKISRVEAEDVGVYYCSQNTHVPPTFGQGTKVEIERTVAAPSVFIFPPSDEQLKSGTASVVCLLNNFYPREAKVQWKVDNALQSGNSQESVTEQDSKDSTYSLSSTLTLSKADYEKHKVYACEVTHQGLSSPVTKSFNRGEC	0.73	90.3 % of control	124 % of control	–
GpH7-A5/GpH7-B3 variant T335_16H/GpL16-k0 (antibody, human IgG1, kappa, heterodimerized; mutation in one H chain only; also called He Ab) heavy 1: not shown heavy 2: not shown light: DIVMTQSPLSLPVTPGEPASISCQASESLVHSNRNTYLHWYLQKPGQSPQLLIYKVSNRFSGVPDRFSGSGSGTDFTLKISRVEAEDVGVYYCSQNTHVPPTFGQGTKVEIERTVAAPSVFIFPPSDEQLKSGTASVVCLLNNFYPREAKVQWKVDNALQSGNSQESVTEQDSKDSTYSLSSTLTLSKADYEKHKVYACEVTHQGLSSPVTKSFNRGEC	–	–	–	108 % of control (GpH7-A5/GpH7-B3/GpL16-k0 = 100)
GpH7-A5/GpH7-B3 variant V266_06M/GpL16-k0 (antibody, human IgG1, kappa, heterodimerized; mutation in one H chain only; also called He Ab) heavy 1: not shown heavy 2: not shown light: DIVMTQSPLSLPVTPGEPASISCQASESLVHSNRNTYLHWYLQKPGQSPQLLIYKVSNRFSGVPDRFSGSGSGTDFTLKISRVEAEDVGVYYCSQNTHVPPTFGQGTKVEIERTVAAPSVFIFPPSDEQLKSGTASVVCLLNNFYPREAKVQWKVDNALQSGNSQESVTEQDSKDSTYSLSSTLTLSKADYEKHKVYACEVTHQGLSSPVTKSFNRGEC	–	–	–	150 % of control (GpH7-A5/GpH7-B3/GpL16-k0 = 100)
GpH7-A5/GpH7-B3 variant T335_08L/GpL16-k0 (antibody, human IgG1, kappa, heterodimerized; mutation in one H chain only; also called He Ab) heavy 1: not shown heavy 2: not shown light: DIVMTQSPLSLPVTPGEPASISCQASESLVHSNRNTYLHWYLQKPGQSPQLLIYKVSNRFSGVPDRFSGSGSGTDFTLKISRVEAEDVGVYYCSQNTHVPPTFGQGTKVEIERTVAAPSVFIFPPSDEQLKSGTASVVCLLNNFYPREAKVQWKVDNALQSGNSQESVTEQDSKDSTYSLSSTLTLSKADYEKHKVYACEVTHQGLSSPVTKSFNRGEC	–	–	–	108 % of control (GpH7-A5/GpH7-B3/GpL16-k0 = 100)
GpH7-A5/GpH7-B3 variant T335_20W/GpL16-k0 (antibody, human IgG1, kappa, heterodimerized; mutation in one H chain only; also called He Ab) heavy 1: not shown heavy 2: not shown light: DIVMTQSPLSLPVTPGEPASISCQASESLVHSNRNTYLHWYLQKPGQSPQLLIYKVSNRFSGVPDRFSGSGSGTDFTLKISRVEAEDVGVYYCSQNTHVPPTFGQGTKVEIERTVAAPSVFIFPPSDEQLKSGTASVVCLLNNFYPREAKVQWKVDNALQSGNSQESVTEQDSKDSTYSLSSTLTLSKADYEKHKVYACEVTHQGLSSPVTKSFNRGEC	–	–	–	109 % of control (GpH7-A5/GpH7-B3/GpL16-k0 = 100)
GpH7-A5/GpH7-B3 variant G237_06M/GpL16-k0 (antibody, human IgG1, kappa, Heterodimerized IgG1; mutation in the GpH7-B3 H chain only; also called He Ab) heavy 1: not shown heavy 2: not shown light: DIVMTQSPLSLPVTPGEPASISCQASESLVHSNRNTYLHWYLQKPGQSPQLLIYKVSNRFSGVPDRFSGSGSGTDFTLKISRVEAEDVGVYYCSQNTHVPPTFGQGTKVEIERTVAAPSVFIFPPSDEQLKSGTASVVCLLNNFYPREAKVQWKVDNALQSGNSQESVTEQDSKDSTYSLSSTLTLSKADYEKHKVYACEVTHQGLSSPVTKSFNRGEC	0.63	81.6 % of control	130 % of control	–
GpH7-A5/GpH7-B3 variant G236_09D/GpL16-k0 (antibody, human IgG1, kappa, Heterodimerized IgG1; mutation in the GpH7-B3 H chain only; also called He Ab) heavy 1: not shown heavy 2: not shown light: DIVMTQSPLSLPVTPGEPASISCQASESLVHSNRNTYLHWYLQKPGQSPQLLIYKVSNRFSGVPDRFSGSGSGTDFTLKISRVEAEDVGVYYCSQNTHVPPTFGQGTKVEIERTVAAPSVFIFPPSDEQLKSGTASVVCLLNNFYPREAKVQWKVDNALQSGNSQESVTEQDSKDSTYSLSSTLTLSKADYEKHKVYACEVTHQGLSSPVTKSFNRGEC	0.58	96.6 % of control	167 % of control	–
GpH7-A5/GpH7-B3 variant G237_08L/GpL16-k0 (antibody, human IgG1, kappa, Heterodimerized IgG1; mutation in the GpH7-B3 H chain only; also called He Ab) heavy 1: not shown heavy 2: not shown light: DIVMTQSPLSLPVTPGEPASISCQASESLVHSNRNTYLHWYLQKPGQSPQLLIYKVSNRFSGVPDRFSGSGSGTDFTLKISRVEAEDVGVYYCSQNTHVPPTFGQGTKVEIERTVAAPSVFIFPPSDEQLKSGTASVVCLLNNFYPREAKVQWKVDNALQSGNSQESVTEQDSKDSTYSLSSTLTLSKADYEKHKVYACEVTHQGLSSPVTKSFNRGEC	0.54	79.6 % of control	148 % of control	–
GpH7-A5/GpH7-B3 variant G237_04F/GpL16-k0 (antibody, human IgG1, kappa, Heterodimerized IgG1; mutation in the GpH7-B3 H chain only; also called He Ab) heavy 1: not shown heavy 2: not shown light: DIVMTQSPLSLPVTPGEPASISCQASESLVHSNRNTYLHWYLQKPGQSPQLLIYKVSNRFSGVPDRFSGSGSGTDFTLKISRVEAEDVGVYYCSQNTHVPPTFGQGTKVEIERTVAAPSVFIFPPSDEQLKSGTASVVCLLNNFYPREAKVQWKVDNALQSGNSQESVTEQDSKDSTYSLSSTLTLSKADYEKHKVYACEVTHQGLSSPVTKSFNRGEC	0.55	81.5 % of control	149 % of control	–
GpH7-A5/GpH7-B3 variant T335_06M/GpL16-k0 (antibody, human IgG1, kappa, heterodimerized; mutation in one H chain only; also called He Ab) heavy 1: not shown heavy 2: not shown light: DIVMTQSPLSLPVTPGEPASISCQASESLVHSNRNTYLHWYLQKPGQSPQLLIYKVSNRFSGVPDRFSGSGSGTDFTLKISRVEAEDVGVYYCSQNTHVPPTFGQGTKVEIERTVAAPSVFIFPPSDEQLKSGTASVVCLLNNFYPREAKVQWKVDNALQSGNSQESVTEQDSKDSTYSLSSTLTLSKADYEKHKVYACEVTHQGLSSPVTKSFNRGEC	–	–	–	105 % of control (GpH7-A5/GpH7-B3/GpL16-k0 = 100)
GpH7-A5/GpH7-B3 variant Y296_20W/GpL16-k0 (antibody, human IgG1, kappa, heterodimerized; mutation in one H chain only; also called He Ab) heavy 1: not shown heavy 2: not shown light: DIVMTQSPLSLPVTPGEPASISCQASESLVHSNRNTYLHWYLQKPGQSPQLLIYKVSNRFSGVPDRFSGSGSGTDFTLKISRVEAEDVGVYYCSQNTHVPPTFGQGTKVEIERTVAAPSVFIFPPSDEQLKSGTASVVCLLNNFYPREAKVQWKVDNALQSGNSQESVTEQDSKDSTYSLSSTLTLSKADYEKHKVYACEVTHQGLSSPVTKSFNRGEC	–	–	–	110 % of control (GpH7-A5/GpH7-B3/GpL16-k0 = 100)
GpH7-A5/GpH7-B3 variant Y300_04F/GpL16-k0 (antibody, human IgG1, kappa, heterodimerized; mutation in one H chain only; also called He Ab) heavy 1: not shown heavy 2: not shown light: DIVMTQSPLSLPVTPGEPASISCQASESLVHSNRNTYLHWYLQKPGQSPQLLIYKVSNRFSGVPDRFSGSGSGTDFTLKISRVEAEDVGVYYCSQNTHVPPTFGQGTKVEIERTVAAPSVFIFPPSDEQLKSGTASVVCLLNNFYPREAKVQWKVDNALQSGNSQESVTEQDSKDSTYSLSSTLTLSKADYEKHKVYACEVTHQGLSSPVTKSFNRGEC	–	–	–	108 % of control (GpH7-A5/GpH7-B3/GpL16-k0 = 100)
GpH7-A5/GpH7-B3 variant T335_19Q/GpL16-k0 (antibody, human IgG1, kappa, heterodimerized; mutation in one H chain only; also called He Ab) heavy 1: not shown heavy 2: not shown light: DIVMTQSPLSLPVTPGEPASISCQASESLVHSNRNTYLHWYLQKPGQSPQLLIYKVSNRFSGVPDRFSGSGSGTDFTLKISRVEAEDVGVYYCSQNTHVPPTFGQGTKVEIERTVAAPSVFIFPPSDEQLKSGTASVVCLLNNFYPREAKVQWKVDNALQSGNSQESVTEQDSKDSTYSLSSTLTLSKADYEKHKVYACEVTHQGLSSPVTKSFNRGEC	–	–	–	106 % of control (GpH7-A5/GpH7-B3/GpL16-k0 = 100)
GpH7-A5/GpH7-B3 variant T335_04F/GpL16-k0 (antibody, human IgG1, kappa, heterodimerized; mutation in one H chain only; also called He Ab) heavy 1: not shown heavy 2: not shown light: DIVMTQSPLSLPVTPGEPASISCQASESLVHSNRNTYLHWYLQKPGQSPQLLIYKVSNRFSGVPDRFSGSGSGTDFTLKISRVEAEDVGVYYCSQNTHVPPTFGQGTKVEIERTVAAPSVFIFPPSDEQLKSGTASVVCLLNNFYPREAKVQWKVDNALQSGNSQESVTEQDSKDSTYSLSSTLTLSKADYEKHKVYACEVTHQGLSSPVTKSFNRGEC	–	–	–	108 % of control (GpH7-A5/GpH7-B3/GpL16-k0 = 100)
GpH7-A5/GpH7-B3 variant T335_18N/GpL16-k0 (antibody, human IgG1, kappa, heterodimerized; mutation in one H chain only; also called He Ab) heavy 1: not shown heavy 2: not shown light: DIVMTQSPLSLPVTPGEPASISCQASESLVHSNRNTYLHWYLQKPGQSPQLLIYKVSNRFSGVPDRFSGSGSGTDFTLKISRVEAEDVGVYYCSQNTHVPPTFGQGTKVEIERTVAAPSVFIFPPSDEQLKSGTASVVCLLNNFYPREAKVQWKVDNALQSGNSQESVTEQDSKDSTYSLSSTLTLSKADYEKHKVYACEVTHQGLSSPVTKSFNRGEC	–	–	–	106 % of control (GpH7-A5/GpH7-B3/GpL16-k0 = 100)
GpH7-A5/GpH7-B3 variant G237_09D/GpL16-k0 (antibody, human IgG1, kappa, Heterodimerized IgG1; mutation in the GpH7-B3 H chain only; also called He Ab) heavy 1: not shown heavy 2: not shown light: DIVMTQSPLSLPVTPGEPASISCQASESLVHSNRNTYLHWYLQKPGQSPQLLIYKVSNRFSGVPDRFSGSGSGTDFTLKISRVEAEDVGVYYCSQNTHVPPTFGQGTKVEIERTVAAPSVFIFPPSDEQLKSGTASVVCLLNNFYPREAKVQWKVDNALQSGNSQESVTEQDSKDSTYSLSSTLTLSKADYEKHKVYACEVTHQGLSSPVTKSFNRGEC	0.38	84 % of control	223 % of control	–
GpH7-A5/GpH7-B3 variant T335_09D/GpL16-k0 (antibody, human IgG1, kappa, heterodimerized; mutation in one H chain only; also called He Ab) heavy 1: not shown heavy 2: not shown light: DIVMTQSPLSLPVTPGEPASISCQASESLVHSNRNTYLHWYLQKPGQSPQLLIYKVSNRFSGVPDRFSGSGSGTDFTLKISRVEAEDVGVYYCSQNTHVPPTFGQGTKVEIERTVAAPSVFIFPPSDEQLKSGTASVVCLLNNFYPREAKVQWKVDNALQSGNSQESVTEQDSKDSTYSLSSTLTLSKADYEKHKVYACEVTHQGLSSPVTKSFNRGEC	–	–	–	110 % of control (GpH7-A5/GpH7-B3/GpL16-k0 = 100)
